Test results from the nanobody polyreactivity screen of Harvey et al. (2022).

Experiment: yeast display, Sf9 membrane polyspecificity reagent, FACS + sequencing; frameworks hold sequencing errors
Procedure, shortened: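 Sorting gates, low and high (top ~1%), were placed on anti-HA fluorescence to track expression and on streptavidin fluorescence to track reagent binding. A clone's polyreactivity label is taken from the gate it came out of. The reagent was 10% biotinylated, detergent-solubilized Sf9 membrane, applied for 1 hour at 4 °C to galactose-induced yeast display cells.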

| Sequence | polyreactivity (PSR sort gate) |
| --- | --- |
| QVQLVESGGGLVQAGGSLRVSCAASGRIFWYNDMGWYRQAPGKERELVAAITARGTRTHYADSVKGRFTISRDNAKKTVYLQMNSLKPEDTAVYYCAKGWYTVVWDAPVFSERGEYWGQGTQVTVSS | low polyreactivity |
| QVQLVDSRGGLVQAGGSLRLSCAASGIIFGYYAMGWYRQAPGKERELVAAITWSGGSTYYADSVKGSFTISRDNAKNTVYLQMNSLKPEDTAVYYCAASAYVQPYDYWGQGTQVTVSS | high polyreactivity |
| QVQLVESGGGLVQAGGSLRLSCAASGSTFYYYAMGWYRQAPGKERELVATISSGSSTNYADSVKGRFTISRDNAKNTVYLQMNSLKPEDTAVYYCATDGDPAYPEMEYWGQGTQVTVSS | low polyreactivity |
| QVQLVESGGGLVQAGGSLRLSCAASGITFQHYAMGWYRQAPGKERELVAAITWRGSNTYYADSVKGRFTISRDNAKNTVYLQMNSLKPEDTAVYYCAAVLSLRSRNYWGHGTQVTVSS | high polyreactivity |
| QVQLVETGGGLVQAGGSLRLSCAASGLTFYDYAMGWYRQAPGKERELVADIDFNGGSTSYADSVKGRFTISRDNAKNTVYLQMNSLKPEDTAVYDCNTRDRGDVVTGLDYWGQGTQVTVSS | low polyreactivity |
| QVQLVESGGGLVQAGGSLRLSCAASGRIFLKYTMGLYRQAPGKERELVAAISRGGSTYYADSVKGRFTISRDNAKNTVYLQMNRLKPEDTAVYYCAATSYRRTGYNYWGQGTQVTVSS | high polyreactivity |
| QVQLVESGGGLVQAGGSHRISCAASGNTFVINTMGWYRQAPGKERELVAGISRRGTSTYYADSVKGRFTISRDNAKNTVYLQMNSLKPEDTAVYYCAVYAEIVRYEYWGQGTQVTVSS | high polyreactivity |
| QVQLVESGGGLVQAGGSLRLSCAASGFTFVQYAMGWYRPAPGKERELVARISSSGGSTYYADSVKGRFTISRDNAKNTVYLQMTSLKPEDTAVYYCAARRSHYYYVARFDYWGQGTQVTVSS | high polyreactivity |
| QVQLLESGGGLVQAGGSLRLSCAASGRIFHYNAMGWYRQAPGKERELVAAITRRGTSTYYADSVKGRFTISRDNAKNTVYLQMNSLKPEDTAVYYCNTDTYYRLLDYWGQGTQVTVSS | low polyreactivity |
| QVQLVESGGGLVQAGGSLRLSCAASGSILTRNAMGWYRQAPAKEREFVARITYSGGRTYYADSVKGRFTISRDNAKNTVYLQMNSLKPEDTAVYYCAKTDRYSLGYWGQGTQVTVSS | low polyreactivity |
| QVQLLESGGGLVQAGGSLRLSCAASGSTFDIYTMGWYRQAPGKERELVAAISRSGTRTYYADSVKGRFTISRDNAKNTVYLQMNSLKPEDTAVYYCNAVQQYYGTWGYGYWGQGTQVTVSS | high polyreactivity |
| QVQLVESGGALVQAGGSLRLSCAASGFIVDAYAMGWYRQAPGKERELVAALTRGNTYYADSVKGRFTISRDNAKNTVYLQMTSLKPEDTGVSCCAARSWQSYRSQVTHSSTLDYWGQGTQVTVSS | low polyreactivity |
| QVQLGESGGGLVQAGGSLRLSCAASGRISGYAMGWYRQAPGKERELVAAISKSAARTYYADSVKGRFTISRDNAKNTVYLQMNSLKPEDTAVYYCAADKPYRYDYWGQGTQVTLSS | high polyreactivity |
| QVQLVESGGGLVQAGGSLRLSCAASGFTFRKNAMGWYRQAPGKERELVAAISSGTSTYYADSVKGRFTISRDNAKNTVYLQMNSLKPEDTAVYYCAAARYRTDDYWGLGTQVTVSS | high polyreactivity |
| QVQLVESGGGLVQAGGSLRLSCAASGRIITTYAMGWYRQAPGKERELVAAISRSSGSTYYADSVKGRFTISRDNAKNTVYLQMNSLKPEDTAVYYCNAYQRKSGRYDYWGQGTQVTVSS | high polyreactivity |
| QVQLVESGGGLVQAGGSLRLSCAASGSTFSLYAMGWYRQAPGKERELVAAITYSGTSTYYADSVKGRFTISRDNAKNTVYLQMNSLKPEDTAVYYCNVESWGGHDFTWAVTSGGYWGQGTQVTVSS | low polyreactivity |
| QVQLVESGGGLVQAGGSLRLSCAASGLTFDAYAMGWYRQAPGKERELDAAISSGGNTYYADSVKGRFTISRDNAKNTVYLQMNSLKPEDTAVYYCNAVGYYKYFFLAYEYDYWGQGTQVTVSS | low polyreactivity |
| QVQLVESGGGLVQAGGSLRLSFAASGRIIRGYAMGRDRQAPGKERELVAAINGGDSTFADSVKGRFTISRDNAKNTVYLQMNSLKPEDTAVYYCAAAHYFLGPQGASFYYWGQGTQVTVSA | low polyreactivity |
| QVQLVESGGGLVQAGGSLRLSCAASGSISFLYTMGWYRQAPGKERELVAAITGSTASTYYADSVKGRFTISRDNAKNTVYLQMNSLKPEDTAVYYCAAYWYAEGYWVSRDYWGQGTQVTVSS | low polyreactivity |
| QVQLVESGGGLVQAGGSLRLSCAASGRTLTQNAMGWYRQAPGKERELVATISWTAGSTYYADSVKGRFTISRDNAKNTVYLQMNSLKPEDTAVYYCAAVVFYSIYDYWGQGTQVTVSS | low polyreactivity |
| QVQLVESGGGLVQAGGSLRLSCAASGGTFGQYAMGWYRQAPGKERELVAAITSSGGRTYYADSVKGRFTISRDNAKNTVYLQMNSLKPEDTAVYYCAADVQSRYVGEGDYWGQGTQVTVSS | high polyreactivity |
| QVQLVESGGGLVQAGGSLRLSCAASGRIFSRYTMGWYRQAPGKERELVAGITRGGGSTYYADSVKGRFTISRDNAKNTVYLQMNSLKPEDNAVYYCNAETSYAWWHYDYWGQGTQVTVSS | low polyreactivity |

| Sequence | polyreactivity (PSR sort gate) |
| --- | --- |
| QVQLVESVGGLVQAGGSLRLSCASSGNIFGAYAMGWYRQAPGKERELVAAIDSGSTNYADSVKGRFTISRDNAKNTVSLQMNSLKPEDTAVYYCNTKDQDVKVHHTSNTDDYWGQGTQVTVSS | low polyreactivity |
| QVQLVESGGGLVQAGGSLRLSCADSGRILIGYTRGWYRQAPGKERELVARINYSGGSTYYADSVKGRFTISRDNAKNTVYLQMNSLKPEDTAVYYCAADVRRGYYTWPPRRVYYWGQGTQVTVSS | high polyreactivity |
| QVQLVESGGGLVQAGGSLRLSCAASGLIFWVYTMGWYRQAPGKERELVASISWNGGSTYYADSVKGRFTISRDNAKNTVYLQMNSLKPEDTAVYYCAAGARYVQRDYWGQGTQVTVSS | low polyreactivity |
| QVQLVESGGGLVQAGGSLRLSCAASGIIFFKYAMGWYRQAPGKERQLVAAITSGGSTYYADSVKGRFTISRDNEKNTVYLQMNSLKPVDTAVYYCAAAGGRFIRYGYWGQGTQVTVSS | high polyreactivity |
| HVQLVESGGGLVQAGGSLRLSCAASGLTFEDNDMGWYRQAPGKERELVAAISSAGSTSYADSVKGRFTISRVNAKNTVYLQMNSLKPEDTAVYYCAKDNSPSYTPAQLDGGDDYWGHGTQVTVSS | low polyreactivity |
| QVQLVESGGSLVQAGGSLRLSCAASGRIFYYNAMGWYRQAPGKERELVAAISWSGGSTYYADSVKGRFTISRDNAKNTVYLQMNSLKPEDTAVYYCAVDVYGYTPRPTREPLIYEYWGQGTQVTVSS | low polyreactivity |
| QVQLVESAAGLVQAGGSLRLSCAASGGIFHGYAMGWYRHAPGKERELVAAISWSTGSTYYADSVKGRFTISRDNAKNTVYLQMNSLKPEDTAVYYCAARYLSGTSRYYYWGQGTQVTVSS | high polyreactivity |
| QVQLVESGGGLVQAGCSLRLSCAASGRTLKYNAMGGYIQAPGKERELVAAISRSGGRLYYADSVKGRFTMSRDNAKNTVYLQMNSLKPEDTAVYYCAKDRSGSYYNFPEYDYWGQGTQVTVSS | high polyreactivity |
| QVQLVESGGGLVQAGGSLRLSCAASGRIFRYYTMGWYRQAPGKERELVATITSDGRTNYADSVKGRFTISRDNAKNTVYLQMNSLKPEDTALYYCAAVYHRSYSLQSYGYWGQGTQVTVSS | high polyreactivity |
| QVQLVESRGRLDQAGGSLRLSCAAYARIFAVYAMGWYRQAPGKESEFVATITYNAGSTYYADSVKGRFTISRDNAKNTVNLQMNSLKPEDTAVYYCAVELDSEPAYEPWTEYDYWGQGTQVTVSS | low polyreactivity |
| QVQLVESGGGLVQAGCSLRLSCAASGLIFRSYAMGWYRQAPGKERELFARISIRGGSTYYADSVKGRFTISRDNAKNTVYLQMNSLKPEDTAVYYCAARPKNNWARTKYGIRYNYWGQGTQVTVSS | high polyreactivity |
| QVQLVESGGGLVQAGGSLRLSCAASGSIFWNNAMGWYRQAPGKERELVAAISKSGTRTYYADSVKGRFTISRDNAKNTFYLQMNSLKPEDTAVYYCAKDPYGRLQPRPRFGYWGQGTQVTVSS | high polyreactivity |
| QVQLVESGGGLVQAGGSLRLSCAASGSTLALNAIGWYRQAPGKEREFVADISWSGGDTYYADSVKGRFTISRDNAKNTVYLQMNILKPEDTAVYYCATDFSYQFQALEDDYWGQGTQVTVSS | low polyreactivity |
| QVQLVESGGGLVQAGGSLRLICAASGRIFYVYAMGWYRQAPGKERELVAAITSGGSTYYADSVKGRFTISRDNAKNTVYLQMNSLKPEDTAVYYCAAYNRGRFRPYRFEYWGQGTQVTVSS | high polyreactivity |
| QVQFVESGGGLVKAGGSLRLSCAASGYTFGRYAMGWYRQAPGKERELVAAITKSGGPTSYADSVKGRFTISRDNAKNTVYLQMNSLKPEDTAVYYCNKVLFQPYWVVYATGDYWGQGTQVTVSS | high polyreactivity |
| QVQLVESGGGLVQAGGSLRISCAASGSTFYYYAMGWYRQAPGKEREFVAAITFRCGTTYYADSVKGRFTISRDYAKNTVYLQMNSLKREDTAVYYCDAKPPFRNYVRYDYWGQGTQVTVSS | high polyreactivity |
| QVQLVESGGGLVQAGGSLRLSCAASGFTRVVSTMGWYRQAPGKERELVATISYTDGSTYYADAVKGRFTISRDNAKNTDYLQMTSLKPEDTADYYCNASYPSSSYSYHVDYWGQGTQVTVSS | low polyreactivity |
| QVQLVESGGGLVQAGGSLRLSCAASGRNFSLYAMGWYRQAPGKERELVAAISRGGSTYYADSVKGRFTISRDNAKNTVYLQMNSLKPEDTAVYYCAAAPDYRAEYDYWGQGTQVTVSS | low polyreactivity |
| QVQLVESGGGLVQAGGTLRLSCAASGSTFGWYAMGWYRQAPGKVREFVAAIRGGGSSTYYADSVKWRFTISRDNAKNSVSLQKNSLKQEVTAVYYCAAVTSQLYGKRYYYWGQGTQGTVSS | high polyreactivity |
| QVQLVESGGGLVQAGGSLRLSCAASGSTFRHYAMGWYRQAPGKERELVAAISSRGGSTYYADSVKGRFTISRDNAKNTVYLQMNSLKPEDTAVYYCNVVGYQRPSYRHMDYWGQGTQVTVSS | high polyreactivity |
| QVQLVESGGGLVQAGGSLRLSCAASGITLTNNAMGWSRHAPGKERELVAAITRSGGSTYYADSVKGRFTISRDNAKNTVYLLMNSLKPEVTAVYCAARWYSYSGSIRSYDYWGQGTQVTVSS | low polyreactivity |
